From US20120263651 come the findings set out here.

Where two headings read alike, the source gives them in different places.

The target in this data set is endogenous RelA in A549 cells (Homo sapiens) (UniProt Q04206). Particulars: two-step ChIP.
Sequence of endogenous RelA in A549 cells (Homo sapiens) (Q04206 whole entry): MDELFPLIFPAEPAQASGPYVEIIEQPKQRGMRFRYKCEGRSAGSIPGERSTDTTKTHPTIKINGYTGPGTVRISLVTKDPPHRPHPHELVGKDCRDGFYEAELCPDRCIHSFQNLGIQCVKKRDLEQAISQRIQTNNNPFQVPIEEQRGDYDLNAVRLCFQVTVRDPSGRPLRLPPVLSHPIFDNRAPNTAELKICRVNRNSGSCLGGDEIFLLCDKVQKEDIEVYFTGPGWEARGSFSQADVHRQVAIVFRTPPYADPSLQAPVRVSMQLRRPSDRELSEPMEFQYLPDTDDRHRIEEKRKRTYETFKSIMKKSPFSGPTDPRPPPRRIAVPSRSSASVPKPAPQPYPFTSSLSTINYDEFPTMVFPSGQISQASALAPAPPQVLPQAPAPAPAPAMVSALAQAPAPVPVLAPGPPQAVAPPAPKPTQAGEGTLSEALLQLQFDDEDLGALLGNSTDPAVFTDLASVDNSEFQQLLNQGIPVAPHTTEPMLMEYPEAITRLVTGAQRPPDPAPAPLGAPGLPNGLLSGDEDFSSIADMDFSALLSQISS

On to Gro-beta promoter chromatin, for which, under “reduced by transfected P028F4 (4 uM)”, the binding signal (fold increase with TNF) came to 3.5.
As for TNFAIP3/A20 promoter chromatin, where the note is “reduced to less than 2-fold by P028F4”, the binding signal (fold increase with TNF) came out at 3.5.
